Data taken from the DeepSol protein solubility set.

Assay: soluble on expression in E. coli; label from the status in PepcDB or PDB records

Soluble on expression in E. coli, soluble:
MMLSALVYTYPYKRSSGFERLRDRIHRKRHRHQKPSVMNETDELYEMSMVTQKSDDDSDLASRIRSEKSIPSTLTTPPTVTYHRRHHHHHKKNRREKNEELCESQRKIVELNTQSHEFDPPFVVEVRCLNSQSPIGSLLSGQEQTCFKGMLRCVQQYADVHVSRRSVGSIHWHPFTIPDAPISCQCMWPVDRYGHQEF
MFVDREEELKALNEKLDSNNFEFIVIYGRRRIGKTKLALKSVENREHIYYLAVEGDNLKHFKRYASKVEPTIEYAKEDWEAYFNFLKDKIIIIDEFPNLIKENPNVLSLFQRIVDIHLKNTKTKLIILGSSISMMGEKVLSYKSPLYGRKTGVLKIKPLKFKHLKEFFPKAIWEELVEIYGFADGIPYYLEKVKLPFWDYLDKEIKRVDSFLRYEVDFLMKYEFEEPTTYKKILEAIAFGNHTLGEIKNYLGFKHSDLTPYLKNLIEVEFIERQTPITESVKSKKGRYYIKDNFIAFYFRYIFPNLSAIEEGIFDIEEIKADYNQYLGFVFEKVAKEFLIELNKMNKLPFKFLKIGRWWHRGEEIDLIALNDNDKKALFVEVKWKDLKDRDVKKIYRDLYRKSKLVGLDDYEKYYAIVGKKIESKENGDCLLFDLEDFSLEHHHHHH
MAAGIVASRRLRDLLTRRLTGSNYPGLSISLRLTGSSAQEEASGVALGEAPDHSYESLRVTSAQKHVLHVQLNRPNKRNAMNKVFWREMVECFNKISRDADCRAVVISGAGKMFTAGIDLMDMASDILQPKGDDVARISWYLRDIITRYQETFNVIERCPKPVIAAVHGGCIGGGVDLVTACDIRYCAQDAFFQVKEVDVGLAADVGTLQRLPKVIGNQSLVNELAFTARKMMADEALGSGLVSRVFPDKEVMLDAALALAAEISSKSPVAVQSTKVNLLYSRDHSVAESLNYVASWNMSMLQTQDLVKSVQATTENKELKTVTFSKL
STDYGEEQRNELEALESIYPDSFTVLSESPPSFTITVTSEAGENDETVQTTLKFTYSEKYPDETPLYEIFSQENLEDNDVSDILKLLALQAEENLGMVMIFTLVTAVQEKLNEIVDQIKTRREEEKKQKEKEAEEAEKKLFHGTPVTIENFLSWKAKFDAELLEIKKKRMKEEEQAGKNKLSGKQLFETDHNLDTSDIQFLEDAGNNVEVDESLFQEMDDLELEDGEDDPDYNPVAPGSDSSD
GSVDIEVQDLEEFALRPAPQGITIKCRITRDKKGMDRGMFPTYFLHLDREDGKKVFLLAGRKRKKSKTSNYLISVDPTDLSRGGDSYIGKLRSNLMGTKFTVYDNGVNPQKASSSTLESGTLRQELAAVCYETNVLGFKGPRKMSVIVPGMNMVHERVCIRPRNEHETLLARWQNKNTESIIELQNKTPVWNDDTQSYVLNFHGRVTQASVKNFQIIHGNDPDYIVMQFGRVAEDVFTMDYNYPLCALQAFAIALSSFDSKLACE
MESELIFHEGGCHCGKIKWRVKAARSVIAWSCNCSDCSMRGNVHFIVPSSNFELLDDSKDFITTYTFGTHTAKHTFCKVCGITSFYIPRSNPDGVAVTVKCVKSGTLAHIEVKSYDGQNWEMSHKKTGIASFSKE
MSLSQNASVGIVMPQKIPFEMPLVLENGKTLPRFDLMIETYGELNAEKNNAVLICHALSGNHHVAGRHSAEDKYTGWWDNMVGPGKPIDTERFFVVGLNNLGGCDGSSGPLSINPETGREYGADFPVVTVKDWVKSQAALADYLGIEQWAAIVGGSLGGMQALQWTISYPERVRHALVIASAPKLSTQNIAFNDVARQAILTDPDFNEGHYRSHNTVPARGLRIARMMGHITYLAEDGLGKKFGRDLRSNGYQYGFGVEFEVESYLRYQGDKFVGRFDANTYLLMTKALDYFDPAADFGDSLTRALQNVKAKFFVASFSTDWRFAPERSHELVKALIAAQKSVQYIEVKSAHGHDAFLMEDEAYMRAVAAYMNNVYKECQQEGHHHHHH
MYALFLLASLLGAALAGPVLGLKECTRGSAVWCQNVKTASDCGAVKHCLQTVWNKPTVKSLPCDICKDVVTAAGDMLKDNATEEEILVYLEKTCDWLPKPNMSASCKEIVDSYLPVILDIIKGEMSRPGEVCSALNLCESLQKHLAELNHQKQLESNKIPELDMTEVVAPFMANIPLLLYPQDGPRSKPQPKDNGDVCQDCIQMVTDIQTAVRTNSTFVQALVEHVKEECDRLGPGMADICKNYISQYSEIAIQMMMHMQPKEICALVGFCDEVKEMPMQTLVPAKVASKNVIPALELVEPIKKHEVPAKSDVYCEVCEFLVKEVTKLIDNNKTEKEILDAFDKMCSKLPKSLSEECQEVVDTYGSSILSILLEEVSPELVCSMLHLCSGTRLPALTVHVTQPKDGGFCEVCKKLVGYLDRNLEKNSTKQEILAALEKGCSFLPDPYQKQCDQFVAEYEPVLIEILVEVMDPSFVCLKIGACPSAHKPLLGTEKCIWGPSYWCQNTETAAQCNAVEHCKRHVWN
MTEITHRTKTRPVKVGNLTIGGNNEVVVQSMTTTKTHDVEATVAEIKRLEEAGCQVVRVACPDMRAAEAIPAIKKQISIPLVVDIHFDYKLALKAIEGGADKIRINPGNIGKRHKVEAVVKAAKEKGIPIRIGVNAGSLEKRILDKYGYPTADGMVESALHHIKILEDLDFHDIIVSMKASDVNLAIEAYEKAAKAFDYPLHLGITESGTLFAGTVKSAAGLGAILNMGIGNTVRVSLSADPVEEVKVARELLKSFGLASNAATLISCPTCGRIEIDLISIANEMEEYISKIRAPIKVAVLGCAVNGPGEAREADIGIAGARGEGLLFRKGEIVRKVPEETMVEELKKEIDKIAEEYFAKQKELEKALEHHHHHH

Soluble on expression in E. coli, not soluble:
MGSDKIHHHHHHMNIQQMKYVAAIANNGSFREAAKKLFITQPSLSNSIRELEEELGISLFLRTNKGAFLTEEGMVFLEQAEKVLVQMELLENRYRETVTSERFSISSQHYDFLGEVIAKVLKKYGDQYKDFRVFETTTLKVIEDVKGFHSELGIIYLNEQNSVSIERYLEQANLAYEVISTFNTHIFLGNHHPLAKQKEIHLEELVPYPQVRFNQEGSNFSYFSEDLVEIPEQESVIHTTDRGTLMNLLVETNAYASGSGVVTGFTKKEIRLVPLAPALENRICLLFPKNREISPIGRYFIKELKALFKKEVDTKTFSTKE
MQTLERFFLFVTGDQPERFEKANSSCADSVILDLENAVSSEKKIIARENALNFMSNDEKVLIAVRAKIVITSRLAGSYPSVDGITTEFMKNELTIQNAIHSCKMGFSGKVCIHPPQISHVNRAFSYLKQEIEWVPQIMRLAQYPHGAFSHEGQMVDKPLLEKAKRILAHSILEHHHHHH
KSIHDAGQRVQIYFSDAAGLVAGRTTIRYQGLEVGMVRDINLSEDLGSIYVDADIYPEATKLLNDKTRFWLVKPTASLTGVSGLDALVSGNYISIQPGDGQEFETTFHALDSAPTDLRVSQGLNIKLKSRDLGGVSIGSQIVYKKIPIGAVYSYQLDEDAKSITIQANIQEQYRHIINDRSRFWNVSGIGASIGFEGVDVRLESMSALLGGAIAVDSPDDGEPVEENTEFRLYKDLKTAGRGIAIKIALPDDNKVSSEGAPIMYRGIEIGQVTDLSLSEGREVILASAAIQPAFSDMLTTGTRFVLEEAKVSLSGVENIANLVRGNFLTIVPGDGERSRRFTAIRKNVFNQQQEKSIAIRLISDNSFGLDSGAN
MKPLSSPLQQYWQTIVERLPEPLAEESLSAQAKSVLTFSDFVQDSISAHPEWLTELESQPPQADEWQHYVAWLQEALINVSDEAGLMRELRLFRRRIMVRIAWAQTLALVTEESILQQLSYLAETLIVAARDWLYDACCREWGTPCNAQGEAQPLLILGMGKLGGGELNFSSDIDLIFAWPEHGCTQGGRWELDNAQFFTRMGQRLIKVLDQPTQDGFVYRVDMRLRPFGESGPLVLSFAALEDYYQEQGRDWERYAMVKARIMGDSEGVYANELRAMLRPFVFRRYIDFSVIQSLRNMKGMIAREVRRRGLTDNIKLGAGGIREIEFIVQVFQLIRGGREPSLQSRSLLPTLSVIAALHLLSENDAEQLRVAYLFLRRLENLLQSINDEQTQTLPSDELNRARLAWAMDFADWPQLTGALTAHMTNVRRVFNELIGDDESETQEESLSEQWRELWQDALQEDDTTPVLAHLSEDDRKQVLTLIADFRKELDKRTIGPRGRQVLDHLMPHLLSDVCAREDAAVTLLRITALLAGIVTRTTYLELLSEFPAALKHLISLCAASPMIASQLARYPLLLDELLDPNTLYQPTATDAYRDELRQYLLRVPEDDEEQQLEALRQFKQAQLLRIAAADIAGTLPVMKVSDHLTWLAEAMIDAVVQQAWVQMVARYGKPNHLNEREGRGFAVVGYGKLGGWELGYSSDLDLIFLHDCPMDAMTDGEREIDGRQFYLRLAQRIMHLFSTRTSSGILYEVDARLRPSGAAGMLVTSTEAFADYQKNEAWTWEHQALVRARVVYGDPQLTAHFDAVRREIMTLPREGKTLQTEVREMREKMRAHLGNKHRDRFDIKADEGGITDIEFITQYLVLRYAHEKPKLTRWSDNVRILELLAQNDIMEEQEAMALTRAYTTLRDELHHLALQELPGHVPEDCFTAERELVRASWQKWLVEE
MGSDKIHHHHHHMKTLKNLITSKHQTKASRFLGYLMPFDDFEKTLLQLKKEHFKAAHFVTAFRYSLEGKITEGFSDDGEPKGSSGMPMLSVLRREDLINIGLVSVRYFGGTLLGVGGLMKAYAKSALLCVENAQKEDALKDFVELETLSAHYSYKELDALQREIKKFSLQLSKKNFSNQSVEVEISGTRENLQAFLQQNKIN
MATHKLSFFEKLANTFGALYRHQAQQFPRRLAILKAVGKHELAPPRSADIPAIKADWAKLQKFIETKQYVNLSIKESLVYSAVALEVVFWFFVGEMIGRRYIFGYIVPANYVSKDTKAKVAEKKRLAALEA
MGSDKIHHHHHHMTAALPAGSDLVIVLPHLGPGGAQKVALMAAEHFLVQGRQVTLVTLLPDKPLSHAVPEGLRWVDLGPAVAETTSNRAPIARIWRFSCTWGRRSLAWISLVIGWKVLKRLVPGQAPLFVQWLVSSASGVQATLLRDLLYAGKPARVLSLLTRTNLLCCQAMWALPGHLVVSERNDPRLQKQSFPWLRLRSWLWQRADVITANTIGVLEGLQHCHPAMADDMRLLPNPLVVDSHPGNHSDEPASGTCFLAVCRLVPQKGIDLLIQAYAQLPEPLREMWPLLIAGDGPERASLETLASSLLPRGQVRFMGFQRNPQVLYHRDAVFVLSSRFEGMPNSLLEAMGSGLAVIVSDASPGPLEVVVHGKSGWVVPTEKVTLLAEAMQAMAENPALRCRLGDAAAEFMDAYSWDTLDPIWSDILCLEKPG
MTFSCEPAELRSRAKAAFIGLAVGDALGAPVEFMTTGEIKAKHGVLREIVGGGWLRLKPGQVTDDTDMSLCVARGVAKAGEWNLTAIAEEFAAWLRSKPVDVGDTCRRGIRNYMLKGLLETPFNQWDAGNGAAMRMLPTALFTMGDDNLLCRCAVEQGHLTHNHPLSDAACITLGRLVHLSVLGFSKPRLRREADRLTESHPTFSFEPYRGLATGYVVDTMQTVLHFFFRGRDFEECLVSTVNQGGDADTTGAIIGMVAGAYYGMEEIPRRWLKKMDRQVLDEIDTLSDLLISLSPALRSGNGILLPPA
MKHARRLRQLSQENLAHISGLSQSAVASYENGLRQSSRSIRKLAIALQVNLDWLETGAGPMELEAYPSGPAAWRPGLMEPGGERAAAPWPFRAVAHARYQALSARDKLLLEQLVRTFIDTCHADYGRAPPWPRER
